This note sets out measurements from US20090022738A1 (MICROMET, published 2009).

Assay [1] deals with T1, Epithelial cell adhesion molecule (EpCAM) (human, UniProt P16422 24-314).
T1 construct: whole, on cells; also called 17-1A antigen; KSA
T1 sequence (looked up): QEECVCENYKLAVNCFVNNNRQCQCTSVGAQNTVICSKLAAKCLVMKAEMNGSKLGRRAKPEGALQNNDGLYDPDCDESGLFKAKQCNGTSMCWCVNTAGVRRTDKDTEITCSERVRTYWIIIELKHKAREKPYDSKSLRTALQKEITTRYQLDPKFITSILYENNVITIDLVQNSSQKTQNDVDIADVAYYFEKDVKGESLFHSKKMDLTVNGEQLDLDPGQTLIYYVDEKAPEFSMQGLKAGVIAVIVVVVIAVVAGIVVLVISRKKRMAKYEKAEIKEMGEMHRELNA
Nature of the assay: FACS, culture supernatant on Kato cells (for EpCAM binding); anti-His detection. As for the experimental part: (§1) 250000 Jurkat cells (for CD3 binding) and Kato cells (for EpCAM binding) were independently incubated with cell culture supernatants (50 μl) containing the bispecific construct (pEF-DHFR-3-1×anti-CD3 (VH5/VL2) (Nr.50, SEQ ID NO.: 48) and pEF-DHFR-5-10×anti-CD3 (VH5/VL2) (Nr.54) (SEQ ID NO.:62), respectively) for 45 min. at 4° C. Thereafter, the cells were washed twice in FACS buffer (phosphate-buffered saline containing 1% fetal calf serum (FCS) and 0.05% sodium azide) and incubated with mouse anti-His antibody (Dianova, DIA910) for 60 min. at 4° C. Washing steps were performed as above.
(§2) The cells were finally incubated either with goat anti-mouse Ig-FITC-conjugated antibody (BD 550003) or with anti-mouse IgG conjugated with PE (Sigma, P8547). After washing steps, 10000 events were analysed using FACS Calibur (B&D).

The target in assay [2] is T2, human CD3 (human, UniProt P07766 23-207; P04234 22-171; P09693 23-182).
T2 construct: whole, on cells; also called CD3 antigen; human CD3 complex
Description: FACS, culture supernatant on Jurkat cells; anti-His detection. As for the experimental part: as §1, §2
Background: In flow cytometry, cells or beads pass a laser one at a time.

B1: 5-10×anti-CD3 (VH5/VL2) (SEQ ID NO.:63) (bispecific antibody)
chain: ELVMTQSPSSLTVTAGEKVTMSCKSSQSLLNSGNQKNYLTWYQQKPGQPPKLLIYWASTRESGVPDRFTGSGSGTDFTLTISSVQAEDLAVYYCQNDYSYPLTFGAGTKLEIKGGGGSGGGGSGGGGSEVQLLEQSGAELVRPGTSVKISCKASGYAFTNYWLGWVKQRPGHGLEWIGDIFPGSGNIHYNEKFKGKATLTADKSSSTAYMQLSSLTFEDSAVYFCARLRNWDEPMDYWGQGTTVTVSSGGGGSDVQLVQSGAEVKKPGASVKVSCKASGYTFTRYTMHWVRQAPGQGLEWIGYINPSRGYTNYADSVKGRFTITTDKSTSTAYMELSSLRSEDTATYYCARYYDDHYCLDYWGQGTTVTVSSGEGTSTGSGGSGGSGGADDIVLTQSPATLSLSPGERATLSCRASQSVSYMNWYQQKPGKAPKRWIYDTSKVASGVPARFSGSGSGTDYSLTINSLEAEDAATYYCQQWSSNPLTFGGGTKVEIK
notes: Bispecific single chain with anti-EpCAM at the N-terminus; tested as CHO culture supernatant; detected by anti-His; also called pEF-DHFR-5-10×anti-CD3 (VH5/VL2); Nr.54
For the molecule B1, the binding result in assay [1] and in assay [2] was “binds” throughout.
